Test results from paper PMC6538622.

Experiments:
[1] = target: Acinetobacter baumannii RNase E N-terminal catalytic domain (Acinetobacter baumannii); assay: SEC-SAXS; 5-10 mg/ml protein in 10 mM DTT, 10 mM MgCl2, 0.5 M NaCl, 20 mM Tris pH 8; KW403-4F size-exclusion column, B21 beamline (Diamond Light Source); molecular mass from I(0)
[2] = target: Acinetobacter baumannii RNase E N-terminal catalytic domain (Acinetobacter baumannii); assay: SEC
[3] = target: Francisella tularensis RNase E N-terminal catalytic domain (Francisella tularensis) (UniProt Q5NFK7); assay: SEC-SAXS
[4] = target: Francisella tularensis RNase E N-terminal catalytic domain (Francisella tularensis) (UniProt Q5NFK7); assay: SEC
[5] = target: Yersinia pestis RNase E N-terminal catalytic domain (Yersinia pestis); assay: SEC-SAXS
[6] = target: Yersinia pestis RNase E N-terminal catalytic domain (Yersinia pestis); assay: SEC

Q: Which results are given for “Acinetobacter baumannii RNase E N-terminal catalytic domain (domain or fragment)”?
A: stoichiometry N [1]: 4; stoichiometry N [2]: 4

Q: With “Francisella tularensis RNase E N-terminal catalytic domain (from UniProt Q5NFK7 1-543) (domain or fragment)” as the substance, how does the stoichiometry N [3] read?
A: 4

Q: What about the stoichiometry N [4] of the same substance?
A: 4

Q: “Yersinia pestis RNase E N-terminal catalytic domain (from UniProt A0AAX2HZU4 1-529) (domain or fragment)” was tested. Which stoichiometry N [5] did it give?
A: 4

Q: And the stoichiometry N [6]?
A: 4
